B1: FLAG-tagged rCEA N (CEA residues 1-214 with His-tag and FLAG epitope) (other, human, UniProt P06731 35-248, looked up, not shown: small tags and cut ends)
chain: KLTIESTPFNVAEGKEVLLLVHNLPQHLFGYSWYKGERVDGNRQIIGYVIGTQQATPGPAYSGREIIYPNASLLIQNIIQNDTGFYTLHVIKSDLVNEEATGQFRVYPELPKPSISSNNSKPVEDKDAVAFTCEPETQDATYLWWVNNQSLPVSPRLQLSNGNRTLTLFNVTRNDTASYKCETQNPVSARRSDSVILNVLYGPDAPTISPLNTS
notes: range 1-214; Made in E. coli; The extra C-terminal CEA residues were added for stability and yield; also called FLAG-tagged rCEA N domain; FLAG-tagged N domain

Experiments:
[1] = molecular target: T1, full length tumour glycoform of human CEA (Sigma-Aldrich) (human, UniProt P06731 35-685, glycosylated (tumour glycoform)); assay: ELISA; target coated (2 µg per well), FLAG-tagged rCEA N titrated, anti-FLAG M2 HRP detection
T1 construct: mature; Bought protein; also called FL-CEA; full length CEA
T1 sequence (looked up): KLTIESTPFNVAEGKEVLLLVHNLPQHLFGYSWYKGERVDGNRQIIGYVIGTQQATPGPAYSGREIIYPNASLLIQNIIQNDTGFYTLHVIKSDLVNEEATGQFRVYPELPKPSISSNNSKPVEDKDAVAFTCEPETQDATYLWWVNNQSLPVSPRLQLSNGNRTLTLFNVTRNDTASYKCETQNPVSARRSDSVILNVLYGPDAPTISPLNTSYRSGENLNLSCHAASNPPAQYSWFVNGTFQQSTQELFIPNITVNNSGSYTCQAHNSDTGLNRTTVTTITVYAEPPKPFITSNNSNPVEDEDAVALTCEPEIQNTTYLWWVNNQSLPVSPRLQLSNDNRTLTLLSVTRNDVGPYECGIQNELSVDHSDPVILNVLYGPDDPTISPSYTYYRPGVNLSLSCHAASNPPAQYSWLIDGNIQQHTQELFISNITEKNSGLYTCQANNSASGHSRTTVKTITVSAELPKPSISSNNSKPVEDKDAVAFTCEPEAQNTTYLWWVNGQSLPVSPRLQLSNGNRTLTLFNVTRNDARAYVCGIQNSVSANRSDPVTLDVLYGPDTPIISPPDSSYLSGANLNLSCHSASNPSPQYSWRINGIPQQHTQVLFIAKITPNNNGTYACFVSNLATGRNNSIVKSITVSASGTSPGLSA
Description: (§1) Briefly, 96-well flat-bottomed Falcon microtiter plates (Becton-Dickinson Biosciences; Franklin Lakes, N.J.) were coated with 2 μg of purified CEA modules or full length CEA per well. After blocking with PBS containing Tween (0.05% v/v) and bovine serum albumin (1% w/v), the plates were then incubated for one hour at room temperature with increasing concentrations of the FLAG-tagged rCEA N diluted in PBS-Tween (0.05%; 100 μL). The presence of bound FLAG-tagged rCEA was detected by incubating the plates for 1 hour at room temperature with horseradish peroxidase (HRP) coupled anti-FLAG monoclonal antibody M2 (1:5,000 dilution; Sigma-Aldrich). The chromogenic HRP substrate 3,3′,5,5′-tetramethylbenzidine (TMB; Sigma) was used to measure at 450 nm the amount of bound FLAG-tagged N domain.

[2] = molecular target: T2, His-tagged rCEA A3B3 domain (residues 445-656, C-terminal His-tag) (human, UniProt P06731 479-690); assay: as above
T2 construct: also called rCEA A3B3 fragment
T2 sequence: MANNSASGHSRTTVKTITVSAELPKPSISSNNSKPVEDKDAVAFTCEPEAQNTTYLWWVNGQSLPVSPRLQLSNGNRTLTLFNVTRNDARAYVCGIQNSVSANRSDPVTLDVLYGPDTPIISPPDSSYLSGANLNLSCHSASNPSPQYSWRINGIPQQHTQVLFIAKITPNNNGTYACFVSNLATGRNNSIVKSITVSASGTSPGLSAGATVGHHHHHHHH
Description: as §1

[3] = molecular target: B1; assay: as above
Description: as §1

[4] = molecular target: T2, His-tagged rCEA A3B3 domain (residues …); assay: ELISA; untagged rCEA N coated, His-tagged module in solution, anti-His HRP detection

B1
binding result [1]: binds
binding result [2]: binds

B2: untagged rCEA N domain (cleaved rCEA N, residues 1-132) (other)
chain: KLTIESTPFNVAEGKEVLLLVHNLPQHLFGYSWYKGERVDGNRQIIGYVIGTQQATPGPAYSGREIIYPNASLLIQNIIQNDTGFYTLHVIKSDLVNEEATGQFRVYPELPKPSISSNNSKPVEDKDAVAFT
notes: Made in E. coli, so it has no N-glycans; also called WT rCEA N domain; untagged WT rCEA N domain
binding result [3]: binds
binding result [4]: binds

Source: US20130071417A1 (GOVERNING COUNCIL OF THE UNIVERSITY OF TORONTO, published 2013)
